Molecular target: the molecule itself
Experiment: size-exclusion chromatography (Superdex 75)
Description: Gel filtration was performed at 4° C. using the AKTA FPLC system equipped with a Superdex 75 HR 16/60 column (Amersham Biosciences). The buffer used for gel filtration is comprised of 50 mM Tris-Cl (pH 8.0), 300 mM NaCl, 5% Glycerol, 1 mM DTT. Fractions containing the recombinant protein were concentrated using Amicon concentrator (Millipore) to a final concentration of ca. 5 mg/ml as measured using Bradford assay. Concentrated proteins were stored in −80° C. degree after flash-freeze using liquid nitrogen. Mutant proteins were expressed, purified and stored following the same procedure. The molecular weight and oligomeric state of the protein was estimated based on the standard curve generated by using the standard proteins that include albumin, ovalbumin, chemotrypsinogen, RNase A. The final yield of the recombinant protein was 12-15 mg per liter culture for the wild type the mutant enzyme.

B1: tDGC mutant R158A (enzyme)
chain: MGSSHHHHHHSSGLVPRGSHMKELEYMAYHDPLTGLPNRRYFFELGNRYLDLAKREGKKVFVLFVDLAGFKAINDTYGHLSGDEVLKTVSKRILDRVARSDVVARYGGDEFTILLYDMKEEYLKSLLERILSTFREPVRVENKHLSVTPNIGVARFPEDGENLEELLKVADMRMYKAKEMKVPYFSLS
notes: Expressed from pET28b(+) with a (His)6 tag; Found as a monomer in solution; also called R158A mutant; mutant tDGC
- binding result: no binding

From patent US20120040403A1 (NANYANG TECHNOLOGICAL UNIVERSITY, published 2012)
